These results are taken from patent US20240117061A1 (WUHAN YZY BIOPHARMA, published 2024).

Experiment [1] concerns the target T1, recombinant human BCMA-huFc fusion protein (human).
T1 construct: also called huBCMA-huFc
Nature of the experiment: indirect ELISA, coated antigen. The method, then:
(§1) Procedures: Human, mouse and monkey BCMA antigens were prepared into 0.5 μg/mL coating solutions with PBS buffer. The coating solutions were added to a microplate at 100 μL/well and incubated at 4° C. overnight. The residual coating solution was discarded before 3% BSA was added at 300 μL/well, and the plate was blocked for 3 h at room temperature. The microplate was washed once with PBST (PBS containing 0.1% of TWEEN 20) at 300 μL/well. The three mouse BCMA antibodies were serially 3-fold diluted from 10 μg/mL to the 7th concentration. The dilutions were added to the microplate at 100 μL/well. After a 1-h incubation at room temperature, the microplate was washed thrice with PBST at 300 μL/well. The HRP goat anti-mouse IgG antibody was 25,000-fold diluted with 1% BSA-PBST and added at 100 μL/well. After another 1-h incubation at room temperature, the microplate was washed thrice with PBST at 300 μL/well and dried. The TMB chromogenic solution was added at 100 μL/well. After a 5-min reaction at room temperature, 2 M H₂SO₄ was added at 100 μL/well to terminate the reaction. The microplate was placed on a microplate reader (Molecular Devices, SPECTRA Max plus 384) and the absorbance OD450 value was read at 450 nm wavelength.

In experiment [2] the target is T2, recombinant cynomolgus monkey BCMA-huFc (cynomolgus monkey; human).
T2 construct: also called cynoBCMA-huFc
Put plainly: indirect ELISA, coated antigen. Here is the method: as §1
For orientation: In an ELISA, binding on a coated surface is turned into a signal by an enzyme label.

Experiment [3] addresses T3, cynomolgus monkey BCMA on HEK293 cynoBCMA cells (cynomolgus monkey, UniProt A0A2K5UD97 1-183).
T3 construct: whole, on cells
Put plainly: flow cytometry on HEK293 cynoBCMA cells; HEK293 cynoBCMA cells. Here is the method: (§2) The affinities of the 3 mouse antibodies for cell surface BCMA antigen were assessed using FACS. Materials: cell lines NCI-H929, U266B1, HEK293 cynoBCMA and HEK293; PBS buffer; FBS (fetal bovine serum; Gibco, 10099141); PE goat anti-mouse IgG Fc (Biolegend, 405307). Procedures: The cells were resuspended in PBS to prepare cell suspensions containing 200,000 cells. Mouse BCMA antibodies were added to a 96-well plate at 50 μL/well and serially 3-fold diluted from 3000 nM. The plate was incubated for 1 h at 4° C. 150 μL of precooled PBS containing 1% of FBS was added into the 96-well plate after the co-incubation with the primary antibody was finished. The mixtures were centrifuged at 300×g for 5 min and the supernatants were discarded. The above procedures were repeated once. The fluorescent secondary antibody PE goat anti-mouse IgG Fc was added at 80 μL/well. The plate was incubated at 4° C. for 30 min. 150 μL of precooled PBS containing 1% of FBS was added into the 96-well plate after the co-incubation with the secondary antibody was finished. The mixtures were uniformly mixed with a pipette. The 96-well plate was centrifuged at 300×g for 5 min in a plate centrifuge and the supernatants were discarded. The above procedures were repeated once. The cells were resuspended in 100 μL of PBS containing 1% of FBS and detected on a flow cytometry (BD Accuri™ C6).

Experiment [4] has as its target T4, human BCMA on cells (NCI-H929, U266B1, HEK293 huBCMA) (human, UniProt Q02223 1-184).
T4 construct: whole, on cells; also called cell surface BCMA antigen
T4 sequence (looked up): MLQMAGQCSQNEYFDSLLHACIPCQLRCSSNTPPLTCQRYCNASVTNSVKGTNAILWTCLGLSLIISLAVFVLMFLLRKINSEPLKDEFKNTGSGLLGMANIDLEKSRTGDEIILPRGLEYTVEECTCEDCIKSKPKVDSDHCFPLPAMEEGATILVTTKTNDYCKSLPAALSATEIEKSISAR
Nature of the experiment: flow cytometry on U266B1 cells. Here is the method: as §2
For orientation: Flow cytometry measures light scatter and fluorescence of single cells or particles in a stream.

The target of experiment [5] is T4, human BCMA on cells (NCI-H929, U266B1, …). Put plainly: flow cytometry on NCI-H929 cells. The method, then:
as §2

Experiment [6] addresses T5, recombinant human BCMA-his fusion protein (ACRO Biosystem, Cat. No. BCA-H522y) (human, UniProt Q02223 1-54).
T5 construct: extracellular domain; Bought protein; also called huBCMA-his; hu BCMA-his; not shown: His tag
T5 sequence (looked up): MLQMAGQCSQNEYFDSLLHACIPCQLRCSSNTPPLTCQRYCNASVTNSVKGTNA
Nature of the experiment: competitive ELISA, coated huBCMA-his, competitor APRIL-biotin. Here is the method: (§3) The 96-well microplate was treated with 100 μL of 0.5 μg/mL huBCMA-his in PBS and incubated overnight at 4° C. The plate was then washed thrice with PBS washing buffer containing 0.1% of Tween-20 and blocked with 300 μL of PBS containing 1% of BSA for 2 h. 100 μL of each BCMA antibody was added to the plate. […] The plate was incubated at 37° C. for 1 h, and unbound secondary antibody was washed with PBS washing buffer containing 0.1% of Tween-20. The TMB chromogenic solution was added at 100 μL/well. After a 5-min reaction at room temperature, 2 M H₂SO₄ was added at 100 μL/well to terminate the reaction. The microplate was placed on a microplate reader (Molecular Devices, SPECTRA Max plus 384) and the absorbance OD450 value was read at 450 nm wavelength.

The target of experiment [7] is T6, recombinant human BCMA-mFc fusion protein (human; mouse).
T6 construct: also called huBCMA-mFc
T6 chain: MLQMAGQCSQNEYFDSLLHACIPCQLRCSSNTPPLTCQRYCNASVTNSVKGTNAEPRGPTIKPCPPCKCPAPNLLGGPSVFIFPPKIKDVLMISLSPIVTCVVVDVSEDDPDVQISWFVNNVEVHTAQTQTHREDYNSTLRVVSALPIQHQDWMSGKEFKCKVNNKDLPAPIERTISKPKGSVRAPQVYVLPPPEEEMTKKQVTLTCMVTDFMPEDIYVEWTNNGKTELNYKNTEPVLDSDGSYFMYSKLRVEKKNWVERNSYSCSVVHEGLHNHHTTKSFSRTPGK
Nature of the experiment: indirect ELISA, coated antigen. The method, then: Procedures: Human, mouse and monkey BCMA antigens were prepared into 0.5 μg/mL coating solutions with PBS buffer. The coating solutions were added to a microplate at 100 μL/well and incubated at 4° C. overnight. The residual coating solution was discarded before 3% BSA was added at 300 μL/well, and the plate was blocked for 3 h at room temperature. The microplate was washed once with PB ST (PBS containing 0.1% of TWEEN 20) at 300 μL/well. The human-mouse chimeric monoclonal antibodies were serially 3-fold diluted from 10 μg/mL to the 9th concentration. The dilutions were added to the microplate at 100 μL/well. After a 1-h incubation at room temperature, the microplate was washed thrice with PB ST at 300 μL/well. The mouse anti-human IgG Fc antibody [HRP] mAb was 25,000-fold diluted with 1% BSA-PBST and added at 100 μL/well. After another 1-h incubation at room temperature, the microplate was washed thrice with PBST at 300 μL/well and dried. The TMB chromogenic solution was added at 100 μL/well. After a 5-min reaction at room temperature, 2 M H₂SO₄ was added at 100 μL/well to terminate the reaction. The microplate was placed on a microplate reader (Molecular Devices, SPECTRA Max plus 384) and the absorbance OD450 value was read at 450 nm wavelength.

The target of experiment [8] is T5, recombinant human BCMA-his fusion …. Put plainly: ELISA, coated antigen. The method, then: Procedures: huBCMA-his and cynoBCMA-his antigens were prepared into 0.5 μg/mL coating solutions with PBS (pH 7.4). The coating solutions were added to a microplate at 100 μL/well and incubated at 4° C. overnight. The residual coating solution was discarded before 3% BSA was added at 300 μL/well, and the plate was blocked for 3 h at room temperature. The microplate was washed once with PB ST at 300 The stock humanized monoclonal antibody solutions were serially 3-fold diluted to the 11th concentration. The dilutions were added to the microplate at 100 μL/well. After a 1-h incubation at room temperature, the microplate was washed thrice with PBST at 300 The HRP-conjugated 6*His, His-Tag antibody was 25,000-fold diluted with 1% BSA-PBST and added at 100 After another 1-h incubation at room temperature, the microplate was washed thrice with PB ST at 300 μL/well and dried. The TMB chromogenic solution was added at 100 μL. After a 5-min reaction at room temperature, 2 M H2504 was added at 100 μL/well to terminate the reaction. The microplate was placed on a microplate reader (Molecular Devices, SPECTRA Max plus 384) and the absorbance OD450 value was read at 450 nm wavelength.

Experiment [9] shares this target. Put plainly: SPR (Biacore T200), anti-His capture on CM5, 1:1 fit. The method, then: In this example, the antigen-antibody binding kinetics and affinity were determined by the BIACORE method.
Procedures: The anti-histidine antibody (GE, His capture Kit, Cat. No. 28995056) was conjugated to the Sereis S Sensor Chip CMS to capture the test articles, thus acquiring the binding kinetic and affinity data of the antigen, as an analyte, to the test articles. The initial concentration for detecting the binding of the antigen and the test articles was 10 nM. […] The Start up flushing process (1×HBS-EP+buffer) was performed at least thrice before loading to equilibrate the system. The association and dissociation tendencies between the antigen and the test articles were detected. When the dissociation was completed, a regeneration reagent was loaded for regeneration before the detection of the next concentration was performed. After the detection was finished, the data were fitted by using a 1:1 Binding fitting mode in data analysis software (Biacore T200 Evaluation Software).
(In general: In SPR one partner is held on a chip, and binding of the other changes the refractive index at the surface.)

The target of experiment [10] is T4, human BCMA on cells (NCI-H929, U266B1, …). Nature of the experiment: flow cytometry on NCI-H929 cells; NCI-H929 cells. The method, then:
(§4) Procedures: The cells were resuspended in PBS, and the cell density was adjusted to 2×10^5 cells/well. Human-mouse chimeric monoclonal antibodies were added to a 96-well plate at 50 μL/well and serially 3-fold diluted from 3000 nM to the 9th concentration. The plate was incubated for 1 h at 4° C. 150 μL of precooled PBS containing 1% of FBS was added into the 96-well plate after the co-incubation with the primary antibody was finished. The mixtures were centrifuged at 300×g for 5 min and the supernatants were discarded. The above procedures were repeated once. The fluorescent secondary antibody PE anti-human IgG Fc (Biolegend, 409304) was added at 80 μL/well. The plate was incubated at 4° C. for 30 min. 150 μL of precooled PBS containing 1% of FBS was added into the 96-well plate after the co-incubation with the secondary antibody was finished. The 96-well plate was centrifuged at 300×g for 5 min and the supernatants were discarded. The above procedures were repeated once. The cells were resuspended in 100 μL of PBS containing 1% of FBS and detected on a flow cytometry (BD Accuri™ C6).

For experiment [11] the target is unchanged. Put plainly: flow cytometry on NCI-H929 cells. The method, then: as §4
The source holds these as a separate data set.

The target of experiment [12] is T5, recombinant human BCMA-his fusion …. Nature of the experiment: competitive ELISA, coated huBCMA-his, competitor 83A10-biotin. Here is the method:
as §3

Experiment [13] addresses T4, human BCMA on cells (NCI-H929, U266B1, …). Put plainly: flow cytometry on U266B1 cells. Here is the method: as §4
This is another data set of the same source.

The target of experiment [14] is T5, recombinant human BCMA-his fusion …. Put plainly: competitive ELISA, coated huBCMA-his, competitor 83A10-biotin, antibody at 7 µg/mL.

T2 sequence (chain, as listed by the source limits assumed): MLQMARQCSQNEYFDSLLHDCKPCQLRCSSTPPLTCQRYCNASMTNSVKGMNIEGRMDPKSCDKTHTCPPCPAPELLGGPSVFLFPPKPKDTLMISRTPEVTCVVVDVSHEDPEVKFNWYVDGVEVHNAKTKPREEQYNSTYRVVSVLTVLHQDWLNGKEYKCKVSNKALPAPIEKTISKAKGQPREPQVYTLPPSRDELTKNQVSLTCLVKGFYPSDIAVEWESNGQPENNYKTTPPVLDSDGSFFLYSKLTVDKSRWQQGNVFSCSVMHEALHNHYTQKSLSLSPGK
T3 sequence (A0A2K5UD97 entry or part of it): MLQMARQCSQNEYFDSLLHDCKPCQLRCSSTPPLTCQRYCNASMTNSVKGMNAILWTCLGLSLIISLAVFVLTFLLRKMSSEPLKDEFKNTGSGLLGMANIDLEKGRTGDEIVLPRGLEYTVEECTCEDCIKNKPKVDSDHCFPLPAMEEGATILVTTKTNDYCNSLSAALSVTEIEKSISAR

B1: mouse monoclonal antibody 211B11H10G5 (antibody, V domains shown)
VH: EVQLQQSGPELVKPGASVKILCKASGYTITDYNMDWVKRSHGKSLEWIGNINPHNGGSIYNQKFKGKATLTVDKSSSTAFMELRSLTSEDTAVYYCARGDATLVLDYWGQGTSLTVSS
VL: DIVLTQSPASLAVSLGQRATISCRASKSVSTSGLSYMHWYQQKPGQPPKVLIYLASNLESGVPARFSGSGSGTDFTLNIHPVEEEDAATYYCQHSRELPPTFGAGTKLELK
notes: detected with anti-mouse IgG; also called Clone 211B11H10G5; BCMA-HC3/BCMA-LC3
In the case of B1, the EC50 – broadly, the midpoint of the concentration-response curve – stood at 0.0492 nM in experiment [1]; 0.0309 nM in [2]; 30.9 nM in experiment [3]; 24.5 nM in experiment [4]; 11.9 nM in experiment [5].

B2: human-mouse chimeric antibody c-mAb1 (antibody, human IgG1, V domains shown)
VH: EVQLQQSGPELVKPGTSVEMSCKASGYTFTDYNIHWVRQRHGESLEWLGYINPNNGVTNFNQKFKGKATLTVNKSSSTAYMELRSLTSDDSAVYYCSSGLFDGYPFPYWGQGTLVTVSA
VL: DIVLTQSPASLVVSLGQRATISCRASKSVSTSGYNYIHWYQQKPGQPPKLLIFLASNLKSGVPARFSGGGSGTDFTLNIHPVEEDDAATYFCQHNRELPYTFGGGTKVEIK
notes: not shown: human IgG1 heavy chain constant region, GenBank No. AK303185.1; human kappa light chain constant region, GenBank No. MG815648.1
Turning to B2, the IC50 (in general, the concentration that gives 50% inhibition) in experiment [6] amounted to 0.0114 µg/mL; in experiment [12] it was 3.16 µg/mL. Also, the EC50 in [7] is 0.647 nM; in experiment [8], 0.00158 nM; in experiment [10], 7.5 nM; in experiment [11], 7.5 nM; in experiment [13], 1.9 nM. Also, the dissociation constant (Kd) – broadly, the free concentration of one partner at which half of the binding sites on the other are occupied at equilibrium, for simple one-to-one binding – in experiment [9] stood at 0.247 nM. The koff (usually a measure of how fast the partners let go of each other) in [9] is 0.00202 s⁻¹. Also, the kon (in general, a measure of how fast the partners come together) in [9] was 8.18e+06 M⁻¹ s⁻¹. Also, in experiment [14], the competition turned out to be 70%.
